Drawing on paper PMC7320145, “Substrate Channeling via a Transient Protein-Protein Complex: The case of D-Glyceraldehyde-3-Phosphate Dehydrogenase and L-Lactate Dehydrogenase” (Scientific Reports, 2020), this text covers Km for two substances.

In data set [1] the test system is NC(=O)C1=CN([C@@H]2O[C@H](COP(=O)(O)OP(=O)(O)OC[C@H]3O[C@@H](n4cnc5c(N)ncnc54)[C@H](O)[C@@H]3O)[C@@H](O)[C@H]2O)C=CC1. The data set can be described thus: purified protein. To be noted: free NADH, 630 μM pyruvate, 50 mM Tris/HCl pH 7.4, 25 °C. Type of data set: biochemical, Sus scrofa.
The test system is the same in data set [2]. The data set can be described thus: purified protein. To be noted: free NADH, 630 μM pyruvate, 50 mM Tris/HCl pH 7.4, 25 °C.

What is called Km is the concentration of substrate that gives half-maximal velocity.

Chain of phLDH (porcine heart LDH) (Sus scrofa) (chain, as listed by the source): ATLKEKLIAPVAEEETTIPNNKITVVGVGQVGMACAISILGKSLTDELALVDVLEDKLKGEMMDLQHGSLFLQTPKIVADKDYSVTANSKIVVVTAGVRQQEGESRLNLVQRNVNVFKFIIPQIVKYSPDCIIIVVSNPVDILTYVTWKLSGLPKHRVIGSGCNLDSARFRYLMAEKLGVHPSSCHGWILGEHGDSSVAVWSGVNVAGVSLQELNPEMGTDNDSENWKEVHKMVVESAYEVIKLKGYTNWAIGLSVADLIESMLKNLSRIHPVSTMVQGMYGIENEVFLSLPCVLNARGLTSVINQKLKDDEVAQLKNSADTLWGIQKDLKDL

As for phLDH (porcine heart LDH) (Sus scrofa), the Km in data set [1] is 7.8 ± 0.9 µM.
In the case of “rmLDH (rabbit muscle LDH) (Oryctolagus cuniculus)”, the Km in data set [2] was 4.4 ± 0.4 µM.
